{
  "source": "patent US20230357414A1",
  "about": "(SYNTHEKINE, published 2023)",
  "binders": {"B1": {"name": "VHH6 (VHH)", "VHH": "QVQLQESGGGLVQAGGSLRLSCQASGYTYGLFCMGWFRQVSGKKREGVAVVDSPGGRHVADSLKGRFTISKDNANNILYLDMTNLKSEDTATYYCAADPEKYCFLFSDAGYQYWGQGTQVTVSS", "notes": "Camel VHH, tested as a periplasmic extract of a phage clone; also called anti-human IL12Rb2 VHH6; hIL12Rb2 VHH; not shown: HA/His tag encoded by the pMECS phagemid"}, "B2": {"name": "mIL12Rb2 VHH1 (VHH)", "VHH": "QVQLQESGGGSVQAGGSLRLSCAASGYTYSNRHMGWFRQAPGKEREGVAAIYTGGGSTYYADSVKDRFTISQDNAKNTLYLQMNSLTPEDTAMYYCAADLTRWYSGGWRDPRGYKYWGQGTQVTVS", "notes": "Camel VHH, tested as a periplasmic extract of a phage clone; also called anti-mouse IL12Rb2 VHH1; not shown: HA/His tag encoded by the pMECS phagemid"}, "B3": {"name": "mIL12Rb2 VHH2 (VHH)", "VHH": "QVQLQESGGGSVQAGGSLRLSCAASGVTYGSYYMAAWFRQAPGKEREGVASIYGGSDSTYYADSVLGRFTISQDNGKNTLYLQMNSLKPDDTAMYYCAAAPPGKWFLKRLEGHNYSYWGQGTQVTVSS", "notes": "Camel VHH, tested as a periplasmic extract of a phage clone; also called anti-mouse IL12Rb2 VHH2; not shown: HA/His tag encoded by the pMECS phagemid"}, "B4": {"name": "mIL12Rb2 VHH6 (VHH)", "VHH": "QVQLQESGGGSVQAGGSLRLSCAVSGKAYGGAWFRQAQGKGREGVAAIWIGTGTTFYADSVKGRFTISRDNAKNTVYLQMDGLKPEDTAVYYCAADDRPGYRDPLAPVSYNHWGQGTQVTVSS", "notes": "Camel VHH, tested as a periplasmic extract of a phage clone; also called anti-mouse IL12Rb2 VHH6; not shown: HA/His tag encoded by the pMECS phagemid"}, "B5": {"name": "mIL12Rb2 VHH4 (VHH)", "VHH": "B4 VHH with A14V, A28L, V90L", "notes": "Camel VHH, tested as a periplasmic extract of a phage clone; also called anti-mouse IL12Rb2 VHH4; not shown: HA/His tag encoded by the pMECS phagemid"}, "B6": {"name": "mIL12Rb2 VHH7 (VHH)", "VHH": "B4 VHH with R19K, K27N, A28P, G41S, I50L, L78V, M80I, V90M", "notes": "Camel VHH, tested as a periplasmic extract of a phage clone; also called anti-mouse IL12Rb2 VHH7; not shown: HA/His tag encoded by the pMECS phagemid"}, "B7": {"name": "mIL12Rb2 VHH8 (VHH)", "VHH": "B4 VHH with A23V, G41S, V90M", "notes": "Camel VHH, tested as a periplasmic extract of a phage clone; also called anti-mouse IL12Rb2 VHH8; not shown: HA/His tag encoded by the pMECS phagemid"}, "B8": {"name": "mIL12Rb2 VHH9 (VHH)", "VHH": "B4 VHH with R19T, A23V, Y29F, E86D, V90M", "notes": "Camel VHH, tested as a periplasmic extract of a phage clone; also called anti-mouse IL12Rb2 VHH9; not shown: HA/His tag encoded by the pMECS phagemid"}, "B9": {"name": "mIL12Rb2 VHH5 (VHH)", "VHH": "QVQLQESGGGSVQAGGSLRLSCAASGITYRGVWMGWFRQAPGKEREGVATIYTGSGHTYYADSVKGRFTISQDNAKNTVYLQMNSLKPEDTAMYYCAARTVGGTFYTLAADSFNTWGQGTQVTVSS", "notes": "Camel VHH, tested as a periplasmic extract of a phage clone; also called anti-mouse IL12Rb2 VHH5; not shown: HA/His tag encoded by the pMECS phagemid"}, "B10": {"name": "mIL12Rb2 VHH10 (VHH)", "VHH": "QVQLQESGGGSVQAGGSLRLSCAASGYTFSNHHMGWFRQAPGKEREGVAAIYTGAGNIYYADSVKDRFTISKDTAKNTLYLQMNSLTPEDTGMYYCAADLTRWYSGGWRDPRGYKYWGQGTQVTVSS", "notes": "Camel VHH, tested as a periplasmic extract of a phage clone; also called anti-mouse IL12Rb2 VHH10; not shown: HA/His tag encoded by the pMECS phagemid"}, "B11": {"name": "mIL12Rb2 VHH11 (VHH)", "VHH": "B10 VHH with S11P", "notes": "Camel VHH, tested as a periplasmic extract of a phage clone; also called anti-mouse IL12Rb2 VHH11; not shown: HA/His tag encoded by the pMECS phagemid"}, "B12": {"name": "mIL12Rb2 VHH12 (VHH)", "VHH": "B10 VHH with S11V, A14P", "notes": "Camel VHH, tested as a periplasmic extract of a phage clone; also called anti-mouse IL12Rb2 VHH12; not shown: HA/His tag encoded by the pMECS phagemid"}, "B13": {"name": "mIL12Rb2 VHH13 (VHH)", "VHH": "B10 VHH with A24V", "notes": "Camel VHH, tested as a periplasmic extract of a phage clone; also called anti-mouse IL12Rb2 VHH13; not shown: HA/His tag encoded by the pMECS phagemid"}, "B14": {"name": "mIL12Rb2 VHH14 (VHH)", "VHH": "QVQLQESGGGSVQAGGSLRLSCAASGATNSNRHMGWFRQAPGKEREGVAAIYTGYTGGGNTYYADSVRDRFTISQDNAKNTLYLQMNSLTPEDTAMYYCAADLTRWYSGGWRDPRGYKYWGQGTQVTVSS", "notes": "Camel VHH, tested as a periplasmic extract of a phage clone; also called anti-mouse IL12Rb2 VHH14; not shown: HA/His tag encoded by the pMECS phagemid"}, "B15": {"name": "mIL12Rb2 VHH16 (VHH)", "VHH": "B14 VHH with R68K", "notes": "Camel VHH, tested as a periplasmic extract of a phage clone; also called anti-mouse IL12Rb2 VHH16; not shown: HA/His tag encoded by the pMECS phagemid"}, "B16": {"name": "mIL12Rb2 VHH15 (VHH)", "VHH": "QVQLQESGGGSVQDGGSLRLSCAASGDIYARNCMGWFRQAPGKEREKIAVADTGGRSPYYADSVKGRFTISRDNAKNTVDLQMNSLKPEDTAVYYCAAGPLVPVVNTAARCVYEYWGQGTQVTVSS", "notes": "Camel VHH, tested as a periplasmic extract of a phage clone; also called anti-mouse IL12Rb2 VHH15; not shown: HA/His tag encoded by the pMECS phagemid"}},
  "note": "Where a chain is given by its changes, count along the chain named.",
  "data": [
    {"molecular_target": "T1, extracellular domain of human IL12Rb2 (amino acids 24-622 of hIL12Rb2, UniProt Q99665) (human, UniProt Q99665 24-622)", "T1 construct": "also called hIL12Rb2 ECD; hIL12Rb2-ECD", "T1 sequence": "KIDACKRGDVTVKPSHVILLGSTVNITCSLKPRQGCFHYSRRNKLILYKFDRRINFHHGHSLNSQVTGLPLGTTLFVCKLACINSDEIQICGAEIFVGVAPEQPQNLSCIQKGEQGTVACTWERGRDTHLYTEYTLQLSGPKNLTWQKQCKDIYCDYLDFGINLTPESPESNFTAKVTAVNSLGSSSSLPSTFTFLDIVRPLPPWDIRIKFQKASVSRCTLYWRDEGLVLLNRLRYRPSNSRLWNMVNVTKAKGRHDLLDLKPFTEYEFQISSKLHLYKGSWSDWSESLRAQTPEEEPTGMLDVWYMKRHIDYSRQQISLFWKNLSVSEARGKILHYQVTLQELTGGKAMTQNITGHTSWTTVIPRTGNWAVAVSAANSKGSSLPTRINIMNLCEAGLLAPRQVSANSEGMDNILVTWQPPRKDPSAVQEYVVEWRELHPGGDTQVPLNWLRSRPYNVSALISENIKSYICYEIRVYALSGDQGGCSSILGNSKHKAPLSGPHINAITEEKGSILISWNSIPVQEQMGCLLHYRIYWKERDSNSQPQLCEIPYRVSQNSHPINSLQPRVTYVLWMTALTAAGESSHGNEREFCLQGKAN", "assay": "periplasmic extract ELISA on antigen-coated plate; positive if A450 at least threefold over PBS-coated control", "procedure": "(§1) Upon completion of the biopanning of Example 3, three 96-well plates of individual phage clones were isolated in order to perform periplasmic extract ELISA (PE-ELISA) on IL12Rb2 coated plates to identify positive VHH binders that selectively bound IL12Rb2. A 96-well plate was coated with IL12Rb2 and PBS under the same conditions. Next, wells were blocked at 37° C. for 1 h. Then, 100 μl of extracted antibodies was added to each well and incubated for 1 h. Subsequently, 100 μl of anti-tag polyclonal antibody conjugated to HRP was added to each well and incubated at 37° C. for 1 h. Plates were developed with TMB substrate. The reaction was stopped by the addition of H2SO4. Absorbance at 450 nm was read on a microtiter plate reader. Antibodies with absorbance of the antigen-coated well at least threefold greater than PBS-coated control are VHHs that specifically bind to IL 12Rb2. Positive clones were sequenced, and sequences analyzed to identify unique clonotypes", "values": [
      {"binder": "B1", "binding result": "binds"}
    ]},
    {"molecular_target": "T2, extracellular domain of mouse IL12Rb2 (614 amino acids, amino acids 24-637 of the mIL12Rb2 precursor, UniProt … (mouse, UniProt P97378 24-637))", "T2 construct": "also called mIL12Rb2 ECD; mIL12Rb2 ECD antigen", "T2 sequence": "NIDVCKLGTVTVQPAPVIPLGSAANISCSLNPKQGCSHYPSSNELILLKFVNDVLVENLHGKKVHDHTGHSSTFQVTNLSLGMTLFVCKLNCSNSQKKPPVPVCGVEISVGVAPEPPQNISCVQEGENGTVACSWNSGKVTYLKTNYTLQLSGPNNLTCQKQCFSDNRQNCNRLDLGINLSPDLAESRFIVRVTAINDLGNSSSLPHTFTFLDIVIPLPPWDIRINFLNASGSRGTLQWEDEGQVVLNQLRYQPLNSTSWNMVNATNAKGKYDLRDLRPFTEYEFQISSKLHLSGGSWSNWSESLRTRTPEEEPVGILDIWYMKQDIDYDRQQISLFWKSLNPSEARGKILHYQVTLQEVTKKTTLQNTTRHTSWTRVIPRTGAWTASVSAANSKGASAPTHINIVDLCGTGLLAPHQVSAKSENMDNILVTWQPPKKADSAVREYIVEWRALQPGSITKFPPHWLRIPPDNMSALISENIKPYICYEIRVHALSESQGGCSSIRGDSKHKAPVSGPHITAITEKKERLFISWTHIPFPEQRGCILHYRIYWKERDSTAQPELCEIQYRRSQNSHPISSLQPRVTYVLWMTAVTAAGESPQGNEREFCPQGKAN", "assay": "periplasmic extract ELISA on antigen-coated plate; positive if A450 at least threefold over PBS-coated control", "procedure": "as §1", "values": [
      {"binder": "B2", "binding result": "binds"},
      {"binder": "B3", "binding result": "binds"},
      {"binder": "B4", "binding result": "binds"},
      {"binder": "B5", "binding result": "binds"},
      {"binder": "B6", "binding result": "binds"},
      {"binder": "B7", "binding result": "binds"},
      {"binder": "B8", "binding result": "binds"},
      {"binder": "B9", "binding result": "binds"},
      {"binder": "B10", "binding result": "binds"},
      {"binder": "B11", "binding result": "binds"},
      {"binder": "B12", "binding result": "binds"},
      {"binder": "B13", "binding result": "binds"},
      {"binder": "B14", "binding result": "binds"},
      {"binder": "B15", "binding result": "binds"},
      {"binder": "B16", "binding result": "binds"}
    ]}
  ]
}
